Measurements from the supplement of paper PMC12042874.
± gives the uncertainty stated by the source.

Test: amyloid nucleation score (Sup35N fusion, yeast selection) (log enrichment); library NNK1; higher = more nucleation; inactive = no reads after selection
Summary of the method: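 Using DiMSum, nucleation scores were taken as the log enrichment of output over input reads, centred on the mode score of non-aggregating sequences. The input and output reads came from Illumina sequencing of plasmid inserts, with sequences under 100 input reads excluded. The yeast were psi-negative, expressed Sup35N fused to peptides of 20 random codons, were induced with 100 μM copper sulfate for 24 hours, and were grown 7 days at 30°C on medium lacking adenine and uracil.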

| Substance | amyloid nucleation score |
| --- | --- |
| FRRLHRYRWDNECLGMQVGS | -1.48 ± 2.1 |
| FTLHYCLMDAFWGSSMDRGV | 0.275 ± 0.41 |
| SLTTHSAGHPLYIHVFNVLV | 0.147 ± 0.35 |
| LAEVQRKTR | -0.291 ± 0.59 |
| GSDQLSTT | -0.338 ± 0.43 |
| GTCPSRPVSV | -0.139 ± 0.47 |
| LKWWWIQNAGCTVVIMVL | -0.701 ± 0.54 |
| KYHRFFAG | -1.02 ± 1.8 |
| VGSNYVCVI | -0.545 ± 0.5 |
| FLVHSTGGHVNISFTSVIYL | 7.889 ± 0.048 |
| ETRANGVESFSTDLYMHFLD | 1.16 ± 0.36 |
| WVQGRRTFLVGWRGSQRGPI | -0.995 ± 0.81 |
| LRAFR | 1.81 ± 0.33 |
| NSFRWDLTLLLWARINVDSF | 1.49 ± 0.7 |
| CANGLLRDLVQAI | 0.547 ± 0.61 |
| KILTVHPSHNDPC | -1.32 ± 1.9 |
| AGKGLAEARTYS | inactive |
| SANDFKMWGMVDKFGVMVLL | inactive |
| KFGDPSRAAILNMSGSISDK | -0.189 ± 0.46 |
| DNRDYVALSFPRKLKWCYIS | -0.834 ± 0.25 |
| ISCCVKLRFGLCKSWNFMNQ | -1.19 ± 1.4 |
| SLKFRLYSPNAMALNPKALF | 0.581 ± 0.21 |
| PNTSEWTDWCRVLVEWGQGS | 0.394 ± 0.18 |
| IWIMWGYRSLDTMLHS | 0.047 ± 0.77 |
| VNVGRKYGAVLGPGVNYGAK | 0.142 ± 0.29 |

| Substance | amyloid nucleation score |
| --- | --- |
| YRSFAYEGSSRIGG | -0.022 ± 0.38 |
| RNSITEIPCPEMYSNNRLAF | 1.13 ± 0.12 |
| WAMREEVYSNSFSFMFALYW | 0.651 ± 0.36 |
| HSVNACLTGRKGAPLRDKPG | 0.166 ± 0.78 |
| IMLVYMKTLGTM | 3.7 ± 0.071 |
| YMDVTGDVK | -0.067 ± 0.85 |
| TKLTSVYMK | -0.355 ± 0.62 |
| HSKRYCGACDLGYLCYRCNI | -0.333 ± 0.24 |
| RALFSIHNTAEGLSERWAAL | 0.58 ± 1.2 |
| DGLKFGFEINPAVRQ | 1.11 ± 0.48 |
| LFVMSWYNYAVKFVAINTIT | -0.031 ± 0.24 |
| ILSAMVRE | -0.081 ± 0.23 |
| STGLACSSWQAFIYLCLLYY | -0.516 ± 1.1 |
| LWFGSHLTNCVKYDLKGESV | 1.41 ± 0.47 |
| IGSMRMVSGLRFMRFVDHFS | -0.316 ± 0.42 |
| RMFWANLQVSVNFGDKRVKY | 4.13 ± 0.091 |
| VVCGIPVFNLRYL | -0.495 ± 0.42 |
| GTHTEYSQKTVLVDIFTELM | inactive |
| FKYSGRCWGANECIKNYNYV | 0.07 ± 0.39 |
| VFWSV | -0.096 ± 0.5 |
| FCSYLFMLATTLHQAWFHF | 1.1 ± 0.72 |
| VDGRDKSFQSFYCKK | 0.236 ± 0.56 |
| TWQFCDVRL | -0.064 ± 0.39 |
| LSERYVSTGVARDSGNAKVG | 3.88 ± 0.11 |
| IIRGRNVNSVRSNYYMGRFY | 2.72 ± 0.095 |

| Substance | amyloid nucleation score |
| --- | --- |
| RPHECRSWAPVRALSGDAHL | 2.91 ± 0.13 |
| VFNLMI | 0.381 ± 0.28 |
| WRMFGGRSEQSFIVPCRLLG | 0.535 ± 1.2 |
| FWCISVRVNYNGYYVYF | 1.2 ± 0.26 |
| ATDSWDC | 0.278 ± 0.33 |
| CRSSVFKYVPVSNIFDYFSI | 0.921 ± 0.84 |
| MLYPNNKSVVLVVMELRPNA | 0.648 ± 0.52 |
| VIHYCYSCFSADQAGLLFTR | 2.22 ± 0.14 |
| VFYDNSARSVCNPNYGWTFS | 0.181 ± 0.48 |
| QIYASKWPYEIEFKNFMRVA | 0.247 ± 0.42 |
| SKSFGFEYPG | -0.002 ± 0.37 |
| LDILDLVRTNVIRTKKPFEI | -0.348 ± 0.83 |
| FSTGNPWVD | -0.342 ± 0.8 |
| MGDFND | -1.08 ± 1.4 |
| YTFGWLLIKPHLRPAFKPHR | -1.75 ± 2.7 |
| VNTIQASMYW | 1.22 ± 0.62 |
| VLDFLYILCVTLANDFLKGW | 0.961 ± 0.76 |
| EFLMIQIVMGAPGCHKGTRR | 0.322 ± 0.47 |
| MGSVVHRKVEVHGRFKCGAT | 0.477 ± 0.93 |
| PFTRVGLDMYLDDSVKKGWD | -0.528 ± 0.36 |
| TKWLLP | 0.504 ± 0.57 |
| VFSNLELTFDRGCFPVRCLR | -0.482 ± 0.35 |
| GTSMRFGGGVIF | -0.721 ± 0.49 |
| VGHYDNSYGRNGLLTTR | -0.179 ± 0.53 |
| CLFWDSCYRKLLTIYDNM | -0.941 ± 0.63 |

| Substance | amyloid nucleation score |
| --- | --- |
| AGGQGRLSRKVYSTMWVESL | 1.17 ± 0.21 |
| IFLGIFSGILYRLSHRLCS | inactive |
| GFRSGSCGFGIL | -1.14 ± 0.48 |
| IFGITNSMLVFMGYCLIHCL | -0.895 ± 1 |
| RYCYRGHMFLFQTSLFKCSS | -0.354 ± 0.83 |
| LWHAYAKSGYPFGSMVGVHA | 0.703 ± 0.4 |
| YMCHKRAFV | 3.32 ± 0.12 |
| CACKLVQSIYLCESLGHPRS | 5.73 ± 0.06 |
| VRHGRSYSFLRQGDFMWCGS | -0.306 ± 0.57 |
| LIGHRSRS | -1.57 ± 1.1 |
| FEYNRYRLLYTTYLGPVGGI | -1.56 ± 0.64 |
| QGRGMDNVIYVEVRMRDCRR | 2.04 ± 0.24 |
| GHDLSVPWRTDWLRGL | 0.177 ± 1.2 |
| FIQNGV | 0.659 ± 0.79 |
| PSALFFSVTLKVHINLAISS | 0.431 ± 0.53 |
| HAFSSCDYSHYVFGMRPFDL | 1.51 ± 0.15 |
| RHCPLAVFRKSPLLAIGKFG | -0.685 ± 0.66 |
| SNREFLQSVVLW | 0.209 ± 0.48 |
| LWLRGLVSFRQSHGRTGKSS | -0.126 ± 0.33 |
| LIQLVDRVGGGVFTRDCDAI | -0.368 ± 0.47 |
| NSEISRGGVMGVCAVLLMSF | 0.273 ± 0.97 |
| YVSYVCLDWM | 6.7 ± 0.068 |
| MVTGTSHPLQYMLSGSSTKY | -0.436 ± 0.45 |
| LDNIMVCNYAE | inactive |
| LSNLDMVM | inactive |

| Substance | amyloid nucleation score |
| --- | --- |
| HGVLCSWSRLKTRFDQNGIS | 0.616 ± 1.2 |
| CNLNAGGKRWADRT | 0.3 ± 0.85 |
| VRNNYSTSIRVVRMAIMWPG | 5.83 ± 0.078 |
| CRLGNEKGRLKSWQNRSNIC | -0.22 ± 0.59 |
| LGVIYLRLWFQSGGRQVLEG | 0.089 ± 0.42 |
| KDSGYMCWMGDLCVWSP | 5.97 ± 0.097 |
| SETFKRE | -0.328 ± 0.66 |
| CISGD | 0.429 ± 0.37 |
| RFISVMSLSLLNNNFIEAHV | 0.55 ± 0.6 |
| ETFPYMRMYARALSRT | 0.369 ± 0.39 |
| SSLQFEMVFGTCYCRKSYSR | 4.19 ± 0.082 |
| TVTLGVPRQCAGTCRMVSLN | inactive |
| NMFAWV | inactive |
| SVDVHYAGRSC | 0.552 ± 0.36 |
| ESFLASMLRIGMCLPKQVMW | -0.096 ± 0.66 |
| PAMSVGQRFYGEQHSCGLSA | -0.583 ± 0.43 |
| SHLCTMIGTCFL | 1.98 ± 0.13 |
| DIWDTAAAPGCRCRGNS | -0.363 ± 1.5 |
| LAKATGHVVCMSRVRRPVGQ | inactive |
| VPNASLSWISFISHLFYMSS | 0.034 ± 0.37 |
| LCEMLF | -0.202 ± 0.61 |
| YHSWECLHRTANIIWEYFRD | -0.019 ± 0.81 |
| KVQYLFCNYLIKSYMMVQCN | 0.477 ± 0.39 |
| SDPCKCTYCSYLSLDITLYA | 0.05 ± 0.23 |
| NNGGASVGFWRMPCHWTRMH | -0.371 ± 0.59 |

| Substance | amyloid nucleation score |
| --- | --- |
| CTDVNSQ | 0.033 ± 0.9 |
| LVKLIWRISAWHSWFVSR | 1.48 ± 0.8 |
| LVDSPCQRSYTRRPHTHWR | 0.15 ± 0.34 |
| WNYTGSFFMQYSMGISRRDG | 1.59 ± 0.2 |
| ISLPLTPN | -0.492 ± 0.36 |
| LEALGYLWDKWAYYAMVMRS | 0.836 ± 0.97 |
| RWFRNAIGGIL | -0.586 ± 0.59 |
| RRSLYYGITIN | -0.337 ± 0.32 |
| WYQLVVVEQGSTLYS | 0.341 ± 0.68 |
| TVFGVL | 0.705 ± 0.77 |
| LSLYESLSNPLVRSYRLFCR | 0.517 ± 0.45 |
| SSFQGPSYSSCIRQHRNTRI | -0.614 ± 0.67 |
| FSIKHPLSSGSKISCVA | -1.23 ± 1.7 |
| SMVTQLRSDNLGHWANSESR | 0.108 ± 0.34 |
| AHKWCVVCQTV | 0.338 ± 0.52 |
| AASRLVRDDWTLISGHPSKA | 0.844 ± 0.73 |
| QLEFVWLILTYHEGHYRIGK | inactive |
| VLIKLCGYTILIRFGRFLCR | -0.203 ± 0.61 |
| ALKLARG | -0.019 ± 1.2 |
| PSSYF | 0.45 ± 0.47 |
| SYSFWPMQLTCYFFDVGRCL | 7.434 ± 0.073 |
| SNFSYMSCLLGYLPLILFAA | 0.014 ± 0.21 |
| DLSDLFLYHFVIWTSVNYSY | -0.562 ± 1.1 |
| IRDTLNVCNKEEQKSRGS | -0.358 ± 0.37 |
| LSSSGFWYWFT | -0.251 ± 0.32 |

| Substance | amyloid nucleation score |
| --- | --- |
| VLTRMDKFGARQTSVTQEAG | 0.102 ± 0.62 |
| LDKYLHLRLWHTVFWYSTIK | inactive |
| FRYYRF | 0.522 ± 0.45 |
| NKGALRLRFYGIFEVECVVE | 1.09 ± 0.4 |
| RLTLLRLVLV | 0.945 ± 0.51 |
| PALLEIQWSSCGV | -0.02 ± 0.72 |
| YMRRVLPRCHPIWNGFPFAR | 0.254 ± 0.93 |
| RYYLMVFFKWIFEIWKMVLK | -0.646 ± 0.28 |
| RYSCY | 0.152 ± 0.6 |
| HLICRFVHVNHCLVQQPKGS | 1.37 ± 0.33 |
| KVFWLYPMNLS | 0.278 ± 0.65 |
| NLCRSNTRVQNAKKCAL | -0.168 ± 0.26 |
| MARPLRIHYNYSGSNDLRVR | -0.444 ± 0.4 |
| VGRACRPDWFLFLRRRKGSR | -0.344 ± 0.44 |
| VLGISLSERNLKGIV | 0.232 ± 0.32 |
| VGYLFRSTSFV | inactive |
| SQLGMAWLSHGVDLPIRFYK | 0.241 ± 1.4 |
| YDKFFGVSIDDR | 0.038 ± 0.59 |
| ILILNGLGGHVFARWYVACT | 0.002 ± 0.75 |
| QTWLTLDQFVLTFGHKDNLG | 0.853 ± 0.51 |
| CARSVCKSQYSSMSMPYLIV | 0.782 ± 0.39 |
| SCVYNWFIKVLPKVSTMSGD | 0.41 ± 0.52 |
| EQFNT | 0.323 ± 0.56 |
| SETYVLLKNPSDNIMQKWCV | 0.147 ± 0.79 |
